The assay has as its target SARS-CoV-2 (2019-nCoV) Spike RBD-His Recombinant Protein, Biotinylated (SARS-CoV-2, UniProt P0DTC2, biotin (biotinylated; site not stated)). Nature of the assay: SPR.

As usually defined, the Kd is the concentration at which binding is half-saturated. With GIGDPVTCLKSGAICHPVFCPRRYKQIGTCGLPGTKCCKKP [Human beta defensin 2 (hBD-2), recombinant], the equilibrium dissociation constant (Kd) stood at 1800 ± 1100 nM.

The record behind these values is publication PMC8808565 (iScience, 2009).
